T1: NCAMP-1 (histone H1X-like ODN binding protein), recombinant (Ictalurus punctatus)
T1 chain: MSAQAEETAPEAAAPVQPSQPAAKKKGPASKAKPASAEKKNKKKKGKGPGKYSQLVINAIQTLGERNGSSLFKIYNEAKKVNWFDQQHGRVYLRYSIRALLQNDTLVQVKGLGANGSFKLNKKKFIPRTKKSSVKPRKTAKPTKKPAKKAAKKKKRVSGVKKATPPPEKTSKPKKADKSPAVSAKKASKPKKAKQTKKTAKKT


Molecular target: T1, NCAMP-1 (histone H1X-like ODN binding …)
Test: Southwestern blot
Details: tags: C-terminal 6xHis (pET-21b, E. coli); label: biotin (3')
Protocol: Biotinylated ODNs were used to identify potential. DNA binding proteins in NCC membrane lysate preparations and to evaluate the ODN binding of recombinant NCAMP-1. Membrane lysates were prepared as indicated above. Purified recombinant NCAMP-1 was mixed with SDS-PAGE sample buffer (reducing) prior to electrophoresis. […] Membranes were blocked in Superblock (Pierce, Rockford Ill.) blocking solution with 0.05% Tween-20. ODN's were diluted in Superblock and added to membranes (1 h, room temperature). Membranes were washed (3×) in TBS with 0.5% Tween-20 (TBST). Neutraviden-HRP (Pierce) diluted in Superblock (minimum dilution 1:50000) was added and incubated for 30 min at room temperature. Blots were washed (3×) in TBST and were developed with enhanced chemiluminiscence (SuperSignal® West Pico Pierce, Rockford, Ill.).

| Binder | binding result |
| --- | --- |
| TCGTCGTTGTCGTTGTCGTT (ssDNA) [CpG ODN] | binds |
| TGCTGCTTGTGCTTGTGCTT (ssDNA) [GpC ODN] | binds |

— patent US20090311278A1, “Novel teleost derived antimicrobial polypeptides” (THE UNIVERSITY OF GEORGIA RESEARCH FOUNDATION, published 2009)
